Article doi:10.1101/2025.11.06.687086 (bioRxiv, 2025)

Columns and labels:
[1] = biological target: T1, A/Michigan/45/2015 (H1N1) HA (Influenza A virus A/Michigan/45/2015 …, UniProt A0A1J0CXU0, strain); assay: BLI; settings: both partners purified
[2] = biological target: A/northern pintail/WA/40964/2014 (H5N8) HA (influenza A virus A/northern …, UniProt A0A0C4WPH5, strain); assay: ELISA; settings: one partner purified
[3] = biological target: T2, A/Solomon Islands/3/2006 (H1N1) HA (Influenza A virus A/Solomon …, strain); assay: ELISA; settings: one partner purified
[4] = biological target: T1, A/Michigan/45/2015 (H1N1) HA; assay: ELISA; settings: one partner purified
[5] = biological target: T3, A/Japan/305/1957 (H2N2) HA (Influenza A virus A/Japan/305/1957 …, UniProt P03451, strain); assay: ELISA; settings: one partner purified
T3 construct: source: Sf9, baculovirus, purified from the supernatant (Ni Sepharose excel, SEC)

[6] = biological target: T4, A/USSR/90/1977 (H1N1) HA (Influenza A virus A/USSR/90/1977 (H1N1), UniProt P03453, strain); assay: ELISA; settings: one partner purified
T4 construct: source: bought: Sino Biological

[7] = biological target: A/California/07/2009 (H1N1) HA (Influenza A virus A/California/07/2009 …, UniProt C3W5X2, strain); assay: ELISA; settings: one partner purified
[8] = biological target: T5, A/Taiwan/01/1986 (H1N1) HA (Influenza A virus A/Taiwan/1/1986 (H1N1), UniProt F5CU03, strain); assay: ELISA; settings: one partner purified
T5 construct: source: bought: Sino Biological

[9] = biological target: A/Beijing/262/1995 (H1N1) HA (Influenza A virus A/Beijing/262/1995 …, UniProt B4UPF7, strain); assay: ELISA; settings: one partner purified
[10] = biological target: T2, A/Solomon Islands/3/2006 (H1N1) HA; assay: cryo-EM structure; settings: both partners purified

Measured: binding result

B1: CR9114 Fab (Fab, V domains shown)
VH: QVQLVQSGAEVKKPGSSVKVSCKSSGGTSNNYAISWVRQAPGQGLDWMGGISPIFGSTAYAQKFQGRVTISADIFSNTAYMELNSLTSEDTAVYFCARHGNYYYYSGMDVWGQGTTVTVSS
VL: QSALTQPPAVSGTPGQRVTISCSGSDSNIGRRSVNWYQQFPGTAPKLLIYSNDQRPSVVPDRFSGSKSGTSASLAISGLQSEDEAEYYCAAWDDSLKGAVFGGGTQLTVL
binds: [1]

B2: FISW84 Fab (Fab, V domains shown)
VH: EVQLLESGGGLVQPGGSLRLSCAASGFTFSSYGMAWVRQAPGKGLEWVSFISATGLSTYFADSVKGRFTISRDTTKNTLYLQMNSLRADDTAVYFCARMRRTMIAFGGNDFWGQGTLVTVSS
VL: EVVMTQSPATLSVSPGEGATLSCRASQSVNTNVAWYQQKPGQAPRLLIYGASTRATGIPARFSGSGSGTEFTLTISTLQSEDFAVYYCQQYSNWPPITFGQGTRLEIK
notes: also called anchor Fab FISW84
binds: [1]

B3: HB315 IgG (antibody, V domains shown)
VH: EVQLLESGGGLAQPGGSLRLSCTASGFTFSNFAMNWVRQAPGKGLEWVSFINSGSGSTYYADSVKGRFTISRDNSENTLFLQMNSLRAEDTAVYYCAKDLGRAIFGLVIPEGAFDIWGQGTMVTVSS
VL: EIVMTQSPSSLSASVGDRVTITCRASQSINNHLNWYQQKPGKAPKLLIYAASSLQSGVPSRFSGSGSGTDFTLTISSLQPADFATYHCQQSYGVPLTFGQGTKVEIK
binds: [2] | [3] | [4] | [5] | [6] | [7] | [8] | [9]

B4: HB315 Fab (Fab, V domains shown)
VH: EVQLLESGGGLAQPGGSLRLSCTASGFTFSNFAMNWVRQAPGKGLEWVSFINSGSGSTYYADSVKGRFTISRDNSENTLFLQMNSLRAEDTAVYYCAKDLGRAIFGLVIPEGAFDIWGQGTMVTVSS
VL: EIVMTQSPSSLSASVGDRVTITCRASQSINNHLNWYQQKPGKAPKLLIYAASSLQSGVPSRFSGSGSGTDFTLTISSLQPADFATYHCQQSYGVPLTFGQGTKVEIK
binds: [10] | [1]

B5: HB31 IgG (antibody, V domains shown)
VH: EVQLLESGGGLVQPGGSLRLSCTVSGFTSSNYDMSWVRQAPGKGLEWVSGISGTGRDTYYADSVKGRFTISRDNSKNTLSLQMNSLRADDTAVYFCARDRPVLRYFDWQPYGLDVWGKGTTVTVSS
VL: QSALTQPPSASGSPGQSVTISCTGTSSDVGGYNYVSWYQQYPSKAPKLMIYEVSKRPSGVPDRFSGSKSGNTASLTVSGLQAEDEADYYCNSYAGSNLYVFGTGTKVTVL
binds: [2] | [3] | [4] | [5] | [6] | [7] | [8] | [9]

B6: HB34 Fab (Fab, V domains shown)
VH: EVQLLESGGGLVQPGGSLRLSCTVSGFTSSNYDMSWVRQAPGKGLEWVSGISGTGRDTYYADSVKGRFTISRDNSKNTLSLQMNSLRADDTAVYFCARDRPVLRYFDWQPYGLDVWGKGTTVTVSS
VL: QSALTQPASVSGSPGQSITISCTGTSSDVGSYNLVSWYQQHPGKAPKLMIYEGSQRPSGVSNRFSGSKSGNTASLTISGLQAEDEADYYCCSYASSTSYVFGTGTKVTVL
binds: [10] | [1]

B7: HB31 Fab (Fab, V domains shown)
VH: EVQLLESGGGLVQPGGSLRLSCTVSGFTSSNYDMSWVRQAPGKGLEWVSGISGTGRDTYYADSVKGRFTISRDNSKNTLSLQMNSLRADDTAVYFCARDRPVLRYFDWQPYGLDVWGKGTTVTVSS
VL: QSALTQPPSASGSPGQSVTISCTGTSSDVGGYNYVSWYQQYPSKAPKLMIYEVSKRPSGVPDRFSGSKSGNTASLTVSGLQAEDEADYYCNSYAGSNLYVFGTGTKVTVL
binds: [10] | [1]

B8: HB34 IgG (antibody, V domains shown)
VH: EVQLLESGGGLVQPGGSLRLSCTVSGFTSSNYDMSWVRQAPGKGLEWVSGISGTGRDTYYADSVKGRFTISRDNSKNTLSLQMNSLRADDTAVYFCARDRPVLRYFDWQPYGLDVWGKGTTVTVSS
VL: QSALTQPASVSGSPGQSITISCTGTSSDVGSYNLVSWYQQHPGKAPKLMIYEGSQRPSGVSNRFSGSKSGNTASLTISGLQAEDEADYYCCSYASSTSYVFGTGTKVTVL
binds: [2] | [3] | [4] | [5] | [6] | [7] | [8] | [9]
